# T1: human FGF23 (fibroblast growth factor 23) (human, UniProt Q9GZV9 25-251)
# T1 construct: In the total FGF23 ECLA the FGF23 was recombinant human FGF23 (standards) and endogenous FGF23 in patient serum (samples); It may include the signal peptide; also called recombinant human FGF23; rhFGF23
# T1 sequence: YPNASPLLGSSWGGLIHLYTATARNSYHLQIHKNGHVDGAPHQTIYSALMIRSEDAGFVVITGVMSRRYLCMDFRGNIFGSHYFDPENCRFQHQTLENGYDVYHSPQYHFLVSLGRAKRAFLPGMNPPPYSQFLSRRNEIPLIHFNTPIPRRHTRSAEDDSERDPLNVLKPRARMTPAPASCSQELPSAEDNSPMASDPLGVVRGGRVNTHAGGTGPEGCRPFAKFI
# B1: KRN23 (antibody, human IgG1, kappa, V domains shown)
# VH: QVQLVQSGAEVKKPGASVKVSCKASGYTFTNHYMHWVRQAPGQGLEWMGIINPISGSTSNAQKFQGRVTMTRDTSTSTVYMELSSLRSEDTAVYYCARDIVDAFDFWGQGTMVTVSS
# VL: AIQLTQSPSSLSASVGDRVTITCRASQGISSALVWYQQKPGKAPKLLIYDASSLESGVPSRFSGSGSGTDFTLTISSLQPEDFATYYCQQFNDYFTFGPGTKVDIKR
# notes: also called anti-FGF23 antibody KRN23; recombinant fully human monoclonal IgG1 antibody
# Target: T1, human FGF23 (fibroblast growth factor …)
# Assay: total FGF23 ECLA; rhFGF23 standards and serum samples incubated with excess KRN23, complex detected
# Method: The mean values of serum total intact FGF23 levels at Baseline were recorded. The total FGF23 ECLA assay measures endogenous FGF23 in the presence of KRN23, whether complexed or unbound in serum. Standards (recombinant human FGF23 [rhFGF23]) and samples are incubated with excess amounts of KRN23 in a buffer matrix then detected by the assay. The assay measures the KRN23/FGF23 complex, which represents all endogenous FGF23 in the sample.
binder,measurement,value
B1,binding result,binds
